Data on 2 molecules can be found in patent publication US20260328755 (published 2026).

The assay deals with T1, TL1A (TNFSF15) (human, UniProt O95150).
T1 chain: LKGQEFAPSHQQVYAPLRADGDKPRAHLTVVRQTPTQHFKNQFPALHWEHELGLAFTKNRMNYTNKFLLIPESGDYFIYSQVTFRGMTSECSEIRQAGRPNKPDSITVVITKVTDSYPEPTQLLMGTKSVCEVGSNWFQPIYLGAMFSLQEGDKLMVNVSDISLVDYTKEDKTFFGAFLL
As to the kind of experiment: ELISA. (An ELISA detects its analyte on a solid surface through an enzyme-linked reagent.)

B1: heavy chain 512 antibody (S228P, L235E) (antibody)
chain 1: not shown
chain 2: EIVLTQSPGTLSLSPGERATLSCRASSSVSYMYWYQQKPGQAPRPLIYATSNLASGIPDRFSGSGSGTDFTLTISRLEPEDFAVYYCQQWEGNPRTFGGGTKLEIKRTVAAPSVFIFPPSDEQLKSGTASVVCLLNNFYPREAKVQWKVDNALQSGNSQESVTEQDSKDSTYSLSSTLTLSKADYEKHKVYACEVTHQGLSSPVTKSFNRGEC
In the case of B1, the midpoint of the response, the EC50, lay at 0.324 nM.

B2: heavy chain 513 antibody (S228P, F234A, L235A) (antibody)
chain 1: not shown
chain 2: B1 chain 2
B2 yielded an EC50 of 0.252 nM.

Usually EC50 stands for the midpoint of the concentration-response curve. Lower therefore signals greater potency.
